According to the supplement of paper PMC10724198:
± gives the standard deviation of the averaged measurements.

test system: Saccharomyces cerevisiae; assay: protein stability index of tFT-peptide fusion (C-terminal peptide) (PSI (0-1 scale)); higher = more stable (slower turnover); conditions: genetic background: wild type; temperature: 30 C
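Further: PSI is a weighted mean of sequencing reads over stability bins, variants kept only with over 10 reads, mCherry proximal and sfGFP distal, peptide attached via GGGS linker.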

Sequence	protein stability index
LRGEGPGRKGGA	0.67 ± 0.05
LRGPRTSTPLST	0.714 ± 0.036
LRGVACCSPILG	0.631 ± 0.036
LRHWKALVTYLL	0.566 ± 0.052
LRIGTCYCGVAW	0.814 ± 0.049
LRLLYGYWGKFL	0.547 ± 0.0072
LRLRGCSATVPG	0.752 ± 0.063
LRLSSFSFSRLS	0.701 ± 0.16
LRNCSVSGSIEW	0.699 ± 0.019
LRPFSRVLRARS	0.628 ± 0.019
LRPLPPRHPPAP	0.624 ± 0.069
LRPPPPPAQPFV	0.69 ± 0.033
LRPSLPCPPFCP	0.641 ± 0.057
LRPTPLPRPSPA	0.691 ± 0.024
LRQEVVRPEWYM	0.66 ± 0.054
LRRKSLHFSFPF	0.618 ± 0.054
LRRSRQGGSGRR	0.6 ± 0.044
LRRVGKLRESGS	0.688 ± 0.018
LRSIQVHLGSTA	0.6992 ± 0.0043
LRSPAILFSFAF	0.602 ± 0.043
LRSPGSHIVRLT	0.569 ± 0.035
LRVRLSVLLPLD	0.578 ± 0.0093
LRVTPYTPRSYP	0.732 ± 0.058

Sequence	protein stability index
LRVVWNLSSRAI	0.636 ± 0.059
LRWGLFSLAWVT	0.5437 ± 0.00065
LRYLEGWWVLRW	0.554 ± 0.063
LSALQQSSAPSI	0.691 ± 0.057
LSCSLSWFFSSV	0.679 ± 0.083
LSFFPPPLPPSS	0.71 ± 0.044
LSFHSYLSPFYL	0.664 ± 0.051
LSFLSDVRHIRE	0.643 ± 0.1
LSGWIRTLLPET	0.674 ± 0.047
LSGYTLRRIISQ	0.704 ± 0.063
LSLPPLRPPYPP	0.678 ± 0.091
LSLVSGWVIPGV	0.687 ± 0.051
LSNATPAHAGKP	0.706 ± 0.13
LSPGRPPRPPRR	0.702 ± 0.041
LSPLPTPLRPNS	0.68 ± 0.025
LSPPPLPPVPSP	0.712 ± 0.015
LSPPPPPLPPPL	0.622 ± 0.12
LSPPSSPPPTPS	0.714 ± 0.076
LSSCPRIMVPIT	0.777 ± 0.11
LSSITLTYVSDF	0.781 ± 0.12
LSSLLFFLSWVV	0.529 ± 0.018
LSSLPSTFPPLP	0.692 ± 0.029
LSTCRYMLRLAY	0.5233 ± 0.0021

Sequence	protein stability index
LSTPFFFVPLTL	0.621 ± 0.007
LSVLNTQFGFGS	0.6751 ± 0.0054
LSVQFVSQHTRV	0.664 ± 0.024
LSVSSLMFNWRS	0.707 ± 0.02
LSWLSLSSNSRL	0.798 ± 0.019
LSWSYTGVCRSE	0.69 ± 0.06
LSYCVGFFSLVG	0.6459 ± 0.0012
LSYSFGCEFLWL	0.674 ± 0.033
LTAKDSRGLFRP	0.706 ± 0.012
LTARPPTLSSPL	0.6729 ± 0.0043
LTASPPRLPPFP	0.701 ± 0.0081
LTGRAVCTDKLK	0.734 ± 0.083
LTKPPHERREKS	0.635 ± 0.019
LTLADWYRIPVI	0.558 ± 0.051
LTLCYGRLPPRL	0.771 ± 0.022
LTPLPSRPPPLP	0.683 ± 0.087
LTSSLSLSFPPL	0.749 ± 0.039
LTTFLLTRIVGA	0.567 ± 0.035
LTVLGSGNLTRS	0.729 ± 0.029
LTYFCTLPATLK	0.663 ± 0.022
LVAATGRCIKKP	0.649 ± 0.061
LVAFKGNSMGRE	0.681 ± 0.019
LVALCGYTLRLR	0.487 ± 0.076

Sequence	protein stability index
LVCMGCCVRTYT	0.608 ± 0.037
LVCPLFCSRWWV	0.674 ± 0.1
LVFGVSRRLGRG	0.65 ± 0.01
LVFHSLCFFPLS	0.694 ± 0.014
LVFREISSRHEI	0.711 ± 0.018
LVGGGEGWVVLG	0.651 ± 0.09
LVGIYYEHPISP	0.754 ± 0.13
LVGLGGCLVGLR	0.6277 ± 0.0027
LVGLVCDFVFVL	0.589 ± 0.007
LVGSGLFGWGWN	0.769 ± 0.073
LVHDQKFSCNWL	0.74 ± 0.031
LVILWDVLSVVP	0.612 ± 0.049
LVIVFDLGNMLH	0.538 ± 0.038
LVLLTRSASLLG	0.691 ± 0.094
LVLSGFSLFPVP	0.705 ± 0.034
LVLTLAPWILFD	0.6784 ± 0.0015
LVLVGISCVKGR	0.597 ± 0.02
LVMTYGFTSVSR	0.687 ± 0.07
LVPWSGCSALLV	0.585 ± 0.014
LVRFRADEPRGG	0.688 ± 0.058
LVRFTCRFFVGV	0.589 ± 0.0089
LVRGRFVVFSGM	0.626 ± 0.034
LVRHCIPIIPPP	0.638 ± 0.026

Sequence	protein stability index
LVRLVGVGLEAV	0.694 ± 0.055
LVSHVPLLPMTP	0.776 ± 0.03
LVSLPISFPASL	0.692 ± 0.035
LVSSLVSSEVYM	0.656 ± 0.019
LVTCPPPVGGPS	0.691 ± 0.0083
LVTGRVASPPLG	0.696 ± 0.043
LVTSACPVPPAR	0.5766 ± 0.002
LVVSHMSQPISM	0.64 ± 0.03
LWALPTPPPSGH	0.67 ± 0.1
LWCPLPHGVLLL	0.608 ± 0.053
LWFPLCRLVRRD	0.682 ± 0.025
LWFVGVAGFSLV	0.5715 ± 0.004
LWSIEVEKAKQK	0.708 ± 0.068
LWSSRPGFDDVW	0.6426 ± 0.0011
LWVSSGASCFIL	0.7239 ± 0.0039
LYGILSCNSGCG	0.672 ± 0.035
LYKYPKRCVDIG	0.676 ± 0.057
LYRFVSVLSDVH	0.577 ± 0.012
LYRRLLCYPKTR	0.675 ± 0.0043
LYSDLLTDDKNC	0.666 ± 0.023
LYSGIAVSATSL	0.734 ± 0.048
LYTENSDLDRVF	0.657 ± 0.039
LYWAYLGASVLL	0.658 ± 0.013

Sequence	protein stability index
MAFKLFPFGRNL	0.73 ± 0.028
MAVYLKYSLLRL	0.515 ± 0.037
MCNLSLSCEGLG	0.665 ± 0.045
MCVFGLFCSCFD	0.586 ± 0.082
MCWGSAEAMGFR	0.663 ± 0.014
MEGRVARAYSDE	0.688 ± 0.04
MFCRSPSYFPTV	0.739 ± 0.035
MFTFIQRPVAQV	0.6357 ± 0.0054
MGAAWNYANFGL	0.7011 ± 0.0059
MGLVVGILVGHR	0.647 ± 0.098
MGLYSNTRNWGS	0.682 ± 0.034
MKGELRHRWCPL	0.71 ± 0.046
MKRLTCGGFNLE	0.704 ± 0.03
MKSRQKPESGPR	0.6899 ± 0.0056
MLLSVDWAGDEI	0.796 ± 0.11
MLSFTQRYYSAI	0.64 ± 0.03
MLSWKASWRQPV	0.664 ± 0.021
MPGYLIRPPVIS	0.709 ± 0.0078
MQEMLPSRPIRH	0.69 ± 0.029
MQLREIIMIEKS	0.693 ± 0.043
MQSRWAQVEGKE	0.673 ± 0.055
MRSLLDPLSNSC	0.7804 ± 0.0065
MSMVVCHGGGGL	0.663 ± 0.017

Sequence	protein stability index
MSRPGEGSYIGD	0.652 ± 0.017
MSSGGSIYMVRT	0.723 ± 0.018
MTMGSIGNFDQG	0.611 ± 0.073
MVARFGNEFMFL	0.695 ± 0.057
MVEFWDLPGRSC	0.744 ± 0.081
MVGLTTEFGSDG	0.667 ± 0.015
MVSFEWCLARSY	0.501 ± 0.054
MVTRSLLLLLHG	0.599 ± 0.053
MWRWRAHVDRFR	0.6831 ± 0.0058
MYPAYNRVRFEL	0.657 ± 0.032
MYRSLPRLKQTY	0.721 ± 0.031
NAGHTGPYADGN	0.669 ± 0.043
NAYRLSCGDNTN	0.683 ± 0.027
NCEVYVGLVLAD	0.597 ± 0.028
NDGLRRLICGGT	0.68 ± 0.022
NDKPKTTQKRTP	0.718 ± 0.0092
NDLYDVLKYLFN	0.712 ± 0.086
NEGGGGRGETVE	0.613 ± 0.021
NEIRNKETETVM	0.665 ± 0.023
NEPEKGQRKRRE	0.8051 ± 0.0073
NFHVRFVPDGGR	0.67 ± 0.021
NFRHSVTTSEVN	0.737 ± 0.013
